This passage reports Q3 (Expression-FITC low, Binding-PE high), + PSR and Q2 (Expression-FITC high, Binding-PE high), + PSR results from patent US20230203202A1.

Experiment [1] addresses poly-specificity reagent (PSR). The experiment is described as follows: flow cytometry PSR assay on protein A beads; same quadrant without PSR: 0.
The target in experiment [2] is poly-specificity reagent (PSR). The experiment is described as follows: flow cytometry PSR assay on protein A beads; same quadrant without PSR: 0.025.
Experiment [3] addresses poly-specificity reagent (PSR). Put plainly: flow cytometry PSR assay on protein A beads; same quadrant without PSR: 9.17E-3.
Experiment [4] has as its target poly-specificity reagent (PSR). The experiment is described as follows: flow cytometry PSR assay on protein A beads; same quadrant without PSR: 0.046.

On to Trastuzumab (antibody), for which the Q3 (Expression-FITC low, Binding-PE high), + PSR in experiment [1] was found to be 0.049. Moreover, the Q2 (Expression-FITC high, Binding-PE high), + PSR in experiment [2] came to 0.37.
For the substance Rituximab (antibody), in experiment [3], the Q3 (Expression-FITC low, Binding-PE high), + PSR was found to be 0.82. In addition, the Q2 (Expression-FITC high, Binding-PE high), + PSR in experiment [4] worked out at 69.8.
